The text below walks through data of the DeepSol protein solubility set.

This series in a line: soluble on expression in E. coli; label from the status in PepcDB or PDB records.
Take “VSQVHRILNCRGTRIHAVADSPPDQQGPLVVLLHGFPESWYSWRHQIPALAGAGYRVVAIDQRGYGRSSKYRVQKAYRIKELVGDVVGVLDSYGAEQAFVVGHDWGAPVAWTFAWLHPDRCAGVVGISVPFAGRGVIGLPGSPFGERRPSDYHLELAGPGRVWYQDYFAVQDGIITEIEEDLRGWLLGLTYTVSGEGMMAATKAAVDAGVDLESMDPIDVIRAGPLCMAEGARLKDAFVYPETMPAWFTEADLDFYTGEFERSGFGGPLSFYHNIDNDWHDLADQQGKPLTPPALFIGGQYDVGTIWGAQAIERAHEVMPNYRGTHMIADVGHWIQQEAPEETNRLLLDFLGGLRP”: the “soluble on expression in E. coli” value is on record as “soluble”. Take “MRAELWQEQRLQLSLTKELVQAIELLQYSAADLEAFLYEQSLENPFLEIRRTRVRQRPSRTERDQKQWLENIGARAETLVGHLLSQLPALKLGDREERIVRYLIASLDEDGYLRVPLAELAARFSASEQEMERGLRLVQSLDPPGVGARDLAECLLLQLERLPERDELAETIVRYHFVPFAEKSWKTLAKQLGVSLGELQRVFELIRTLEPRPGIHYSSETLPLVVPDVIVTRGADGDWMAAYNDDIHPELGWNRDYERRIAASGDRHAEQFIKEKYRQFTWLAKSLEQRKQTLLHLMAVIIDRQRSCLEFGLSALKPMTMREVAEELGVHESTVSRAVRHKYVQTPFGTVELRRFFSNAATAAGDEAASSAHVKAIMEALISEEDRRAPLSDQQLADLLRDRYGIAISRRTVAKYREQLRIPSSAKRRQYIGLP”: the “soluble on expression in E. coli” value is on record as “not soluble”. Under “HGPAEISDLDRQIEQLRRCELIKESEVKALCAKAREILVEESNVQRVDSPVTVCGDIHGQFYDLKELFRVGGDVPETNYLFMGDFVDRGFYSVETFLLLLALKVRYPDRITLIRGNHESRQITQVYGFYDECLRKYGSVTVWRYCTEIFDYLSLSAIIDGKIFCVHGGLSPSIQTLDQIRTIDRKQEVPHDGPMCDLLWSDPEDTTGWGVSPRGAGYLFGSDVVAQFNAANDIDMICRAHQLVMEGYKWHFNETVLTVWSAPNYCYRCGNVAAILELDEHLQKDFIIFEAAPQETVRASSPSPL” stands “soluble”; under “MDEGDKKSPISQVHEIGIKRNMTVHFKVLREEGPAHMKNFITACIVGSIVTEGEGNGKKVSKKRAAEKMLVELQKL”, “soluble”.

For “MDIKNSPSSLNSPSSYNCSQSILPLEHGSIYIPSSYVDSHHEYPAMTFYSPAVMNYSIPSNVTNLEGGPGRQTTSPNVLWPTPGHLSPLVVHRQLSHLYAEPQKSPWCEARSLEHTLPVNRETLKRKVSGNRCASPVTGPGSKRDAHFCAVCSDYASGYHYGVWSCEGCKAFFKRSIQGHNDYICPATNQCTIDKNRRKSCQACRLRKCYEVGMVKCGSRRERCGYRLVRRQRSADEQLHCAGKAKRSGGHAPRVRELLLDALSPEQLVLTLLEAEPPHVLISRPSAPFTEASMMMSLTKLADKELVHMISWAKKIPGFVELSLFDQVRLLESCWMEVLMMGLMWRSIDHPGKLIFAPDLVLDRDEGKCVEGILEIFDMLLATTSRFRELKLQHKEYLCVKAMILLNSSMYPLVTATQDADSSRKLAHLLNAVTDALVWVIAKSGISSQQQSMRLANLLMLLSHVRHASNKGMEHLLNMKCKNVVPVYDLLLEMLNAHVLRGCKSSITGSECSPAEDSKSKEGSQNPQSQ”, the “soluble on expression in E. coli” value is reported as “soluble”. For “MSKRQSSLMSFFTKTPKSEKPEEEVKEKSVEEPKSLKNDTPKISNDSEKKVLKRSNSKTVSSPVKTPRNASKRPKVVVCSSSEGEDDDGDEDFEMKEAEEHESSDESEADENASDCEVVESPESTPQSTPKRGGKKKISKPLLAENTPKSVKMAGKSKKVIPDGEAVSMAGVLDKMDKIMDGEGERKRIVEKTTGAKNKAVELEPAERFDHESFDFLKPDKIRDGFKRPMSDPEYDPKTLWVPPDFHQKQTPGHRQWWTMKSQHFDTILLFKVGKFYETYHMDAVEVVRALNIAFMRGSYAHAGFPEHAASKFADQLMNHGYKVARIEQTETPQMLEERNQKTKTKEKVVRREVCRVTSNGTRTYGVLDGVDLGSASSTLDPTAKHLLAIKEFHNPETGKSSYGVCMIDTTTAHIRIGQFEDDDYRSQLRTLLANVIVVQAIVERGSISSTTKSIINGILFSVPVEHLLPKKQFMTAEDVVRIVSNEDYYGSDASEWPEVLKGMLEDSSILPKPSTDWQLALSAFGAIFWYLRDSLIDVDMLSMRNVTIYNSNSMENDQKKEKIDWNGKNLILDGTALENLNIVPNGRDSHLTSLYYVINKCSTPFGRRLLRSWLLQPTCDPKKLEQRQKAIKWLVSPDASSFMTTATATLKKIPDLDRLLQKIHTIGLKYRSEKHPDSRAIFFDTIKTNQKKIAELLAAIDGFKLCNKLRKEYIKVQKEGEGCELLDELLGNEQEMEEVDENIYFFEKMFDRSTAMKDGKIVPNAGCDEEYDEALNRVKEALNELNDYKDSVAKKYSCSIKFVDSGKVKYLLEMPENTKVSSSFELKSRRKGFIRYSTPDSEQLVAALDAVEKEKSKLGDDATRRVFEQFGHKNPIWLETVKLVSSFDVLTSLALFAKSSPFEMCMPEFDFNATDPYLIVDKGVHPCLALQSRNEVTQTTSFIANSTTMGASEAAVMLLTGPNMGGKSTLMRQTAVLAILAHIGSMVPAFSMRLTPIDRIFTRIGANDRIMCGESTFFIELKETDIMLKNATKHSLLLVDELGRGTSTFDGTAIASAVLQKISDDLACRTFFSTHYHSICDSFTNHPNVRLAHMKCVVDKENNEDPTMEDVTFLYELESGICPKSYGFYAAKLAGIDHQVVRNAYLESNKFASNLIIDPKIRHLVECARDDNFDVGELKRMIEAI” the value was “not soluble”; for “MSLKNDVSPLEIKVIDENSEQYGISKETLMENAGRAVYEEIVNLNVDFSKTYLFCGTGNNGGDGFVIARHLANNFATFVVLIGNERKIKTSETQRNFNTVKNMEFFGNLDYANILDDERAVELLKTIEKELENKQNDHILIIDAMLGTGITGILKNPYSTIVDYLNVLKSKYSKKLKMVSVDIQTGNLNADLEVILHKRKFENKNKNFVVKDIGIPKYIENMVGKGDFYLLNERKQNSHKGQNGNVLVIGGSKEYHGAPVFSALAASKFADIVTVASVSNVMNTVSNYPELMPYELTGDYIVQNHVDELLELSKNYDCVVLGSGISVNSDTKEFVNSYLNETNGKVVIDADAIKLIDYSNFKFKNNFIFTPHKKEFEYIENYIESSGFKSTVVLKGSLDIIFNSNNIKMNITGNQGMTVGGTGDILCGIIGAIYACNDAFPSACCGTYINGYCGDLLEKEYGYYYNSTDIIKILPKALKELLYEGHHHHHH”, “soluble”; for “MARPIGIYEKATPKHFTWLERLNFAKELGFDFVELSIDESDERLARLDWSKKERLELVNAIFETGVRIPTITFSGHRRYPLGSNDSEKEARALEMMEKCIEFAQDIGIRNIQLAGYDVYYEEKSPKTRARFLKNLRQACTWAEEAQVILSIEIMDDPFINSIEKYLAVEKEIDSPYLFVYPDAGNVSAWGNDLWSEFYIGHKSIAALHLKDTYAVTESSKGQFRDVPFGQGCVDWEAMFDVLKKTNYNGPFLIEMWSENCETVEETRAAIKEAQDFLYPLIEKAGLR”, “not soluble”. For “MSLGDFSELARVNGEPVYVKEYKMKLLSNTTEVINYFSQSYAVETKENFRTDSYSGEAPVEMARKKALDDIVEVKVQQILAKEKGIIESTDYREFLKELENENRQRKDALKSNKVVYGPDNYGEIEYFNYSFDNMVSKLKEKLKENELSIPEEKLESMYNLLKDTRFKLPDDIKIQVISIGFTDEKGIINDDLKSKARVKIEEAKKRIDNGEPFEEVALDYNPKSGVLEYVFTKEKQMAKDISHPELLDEALKLKPGQVSEIIERSTDFVLILCKEKKSTGYLPYKDARKQLLDELIEKDYQEYIDKLVEQADVKINEKLYRRINVNEGHHHHHH” the value was “soluble”; for “MKIIKRSGSEVTFDISKIMAAVSKANMEVVHSERLSEEQIETISNNVESICKEMNRSLSVEEIQDLVENQIMNLRAFAVARKYITYRYKRALVRKSNST”, “not soluble”. As to “MAHHHHHHMSSETPRASTHDVFCAALQMLGGAQIFAQPLIQRTAVASLSPRSRNGNQASAVIAESATSRDAGTNHLPDPGIDVDAKPVDKPCCRGEQPCERTGTAPVKAMVTLCDPPARCEGVLAAQNAQRRLHHLRFFGGRFFLADGVTASESQQTSGYASTATSNAHVSDDCSSTWELKASYFQAMKETLTAVMGRRLRSQLLCDDSTADTGTVLRAPVPRGATGASTMTTSARQAALRRRMEAFTSAVVHQESILDAVAAACRARLNTVGGATAAPTPCFFFSALPQISVRQWAGSHLYKHWLVRCGTPRASLPSTATNPQKSGPHGAPMLTSPSAPRAPATALVLPLDVEAELRKYWKLHDEAAARARLEALRCNDAQAFAEHVSLLKVSALLEIMEKTEGFMRRIGLRLQFHATQAAANRGGDGARAVPTTRAAPAALAEPGIADRPGGAAGCHGSEYERFRSYVASTKNEFKLMHRVDVFVAAQPAGLDATLLPHQMDGLRFLASLDANHINGILADEMGVGKTIQTLAFLLYLKNRRGETGETGEGSGGRVAPPRVGSRLPHLVLAPLSVVREWREACEQFVPSALHVAMYQELADPVHEAAAYDLVLLPVHAIRYVGAEAARIQWHYIVVDEAHKAVANLSTITAQRILRPLVFAPPGADWNAAQQRLAGALVAAALSESGGVHRQ”, the “soluble on expression in E. coli” value is reported as “not soluble”. Regarding “MPKSKSQKNKLRPRDSKGRFTPLAKAKRTVVSRSRSRSRSASRGARQSRSVGRPMSRRNSVRSISTHTAKSPSLVLVISGSPSPRRRRPSTRRSSSRRSVVRSVSRGSKGRRSSSRGSVYGRTGRSRSSKRSRSRSRPRTRSGSRSSSRSRSGSRRSSRRRSRHRSSSKARGRRASTAKKTPAKRRSRSRSQQKVKRSMSRKG”, the “soluble on expression in E. coli” value is “soluble”. Under “MGSDKIHHHHHHMSKIDELVFTPKQQDTITFPFQNVTLEVNEGTPRSGKTTADIFKMAYIYSISEDQNHLVTAYNQEQAFRLFMDGDGFGLMHIFGNLAEMKHDEHGDHLLIHSPNGPKKIYYKGGGKINSVGAITGMSLGTVTFLEINLLHKDFIEECFRRTFAAKNRFHLAELNPPAPNHPVLEIFSQYEKSGRYKWRHWTAKDNPALSDERKQEIYNEVKHSAYLLQRDWYGKRVLPAGIIYETFDVEANQIKKMQGHPIEMVFFGDGGQQDATVCECYVITEHEAEGGYTYNLNQVATYYHSGRDTGQVKAGSTYAIEIKQFIQWCMKEYEVPVNEPVFIDPACRWLREELEKVGVDTAGADNNAHDVTGKAQGIEVGIERMQSLLSERRYLLVEQPNDQYDHYSWLQEIGMYVRDENSGKPVDKNNHAMDTSRYATNYFYRNYEDI” stands “not soluble”; under “MQSVLNLGKTTVTTCTFLRAASTSLQGKGPLKTNWKENVVYLYQFPRPANRQPNLSPYCLKIETFLRANRIKHEVVGTWLTLRQSPRGLLPFIELNGQQISDSQVIVWKLQKHFDLDDKLEGSDRGTARAVERMIDLSTNYALLVDKTVNNAHLLLARQVSNLPLPSFLTNYLAKGFSQTARKRVNGVLGKLDVAEQKELLRRDIRAIDDILGDKKFLFGDRITSVDCSVFGQIGAVFYLPYRQQISDLLEDDFPRVRAYCDRIRQHYYPEWRDD”, “not soluble”. Under “MGSDKIHHHHHHMLRIFQGRPAVTIAAVLVAASVAGCAGKAKKPTLVYEERPVELLYSTGADRLDRGNWNEAVDYFREVERQHPYSEWSRRSILMTGYAHYMGNQYAEAIGDADRFISLYPGNPSAQYAFYLKAICYFEQIVDVNRDQAATEQALAALRDVVQRYPNTEYATDARLKIDMVNDQLAGKEMAIGRWYLKNGQTLAAIGRFKAVIERHQTTSHTPEALFRLVEAYLTIGLNEEAKRNGAVLGYNFPGDRWYVDAYRLLNDNGLRPAVEPLKAGAKRNALERILSKDKEATLAPPGERKAKKGLLGPLGM” stands “not soluble”.
